Positions of bridges follow the written chain, without caps; N, C: chain ends. No end group written: not given here. *: point of attachment. 125I = [125I]*
What was measured:
[1] = target: yeast Gβγ (Saccharomyces cerevisiae) (UniProt P18851); assay: cell-based or functional assay
[2] = target: rat CCKB receptor (rat) (UniProt P30553); assay: cell-based or functional assay
[3] = target: human GRF receptor (human) (UniProt Q02643); assay: cell-based or functional assay
[4] = target: T1, rat SSTR2 somatostatin receptor subtype (rat, UniProt P30680 1-369); assay: radioligand saturation binding, yeast membranes coexpressing Scg1/Gαi2
T1 construct: whole, on cells; Tested in yeast cells or crude yeast membranes; also called somatostatin receptor subtype 2
T1 sequence (P30680 whole entry): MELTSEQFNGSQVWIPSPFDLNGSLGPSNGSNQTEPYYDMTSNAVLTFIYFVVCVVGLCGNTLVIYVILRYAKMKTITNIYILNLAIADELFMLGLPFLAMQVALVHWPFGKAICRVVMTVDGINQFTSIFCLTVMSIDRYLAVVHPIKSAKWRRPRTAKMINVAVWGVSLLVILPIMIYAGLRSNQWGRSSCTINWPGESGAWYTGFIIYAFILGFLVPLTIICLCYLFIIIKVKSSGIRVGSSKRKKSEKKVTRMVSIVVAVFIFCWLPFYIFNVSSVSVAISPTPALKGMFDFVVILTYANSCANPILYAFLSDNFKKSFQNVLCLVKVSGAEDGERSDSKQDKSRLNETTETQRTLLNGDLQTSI

Sequence of human GRF receptor (human) (Q02643 23-423): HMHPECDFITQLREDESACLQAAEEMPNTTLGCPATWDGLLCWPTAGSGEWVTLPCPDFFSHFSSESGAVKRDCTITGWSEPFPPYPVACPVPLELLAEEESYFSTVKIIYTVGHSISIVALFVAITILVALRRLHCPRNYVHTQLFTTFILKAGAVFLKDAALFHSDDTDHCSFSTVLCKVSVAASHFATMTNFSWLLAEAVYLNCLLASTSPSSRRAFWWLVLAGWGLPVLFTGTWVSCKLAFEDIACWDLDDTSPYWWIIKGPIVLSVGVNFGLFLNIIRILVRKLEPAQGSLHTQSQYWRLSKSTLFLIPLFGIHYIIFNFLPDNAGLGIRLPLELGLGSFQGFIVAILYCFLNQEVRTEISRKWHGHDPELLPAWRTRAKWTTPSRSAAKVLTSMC
Sequence of yeast Gβγ (Saccharomyces cerevisiae) (P18851 whole entry, chain 1 of 2): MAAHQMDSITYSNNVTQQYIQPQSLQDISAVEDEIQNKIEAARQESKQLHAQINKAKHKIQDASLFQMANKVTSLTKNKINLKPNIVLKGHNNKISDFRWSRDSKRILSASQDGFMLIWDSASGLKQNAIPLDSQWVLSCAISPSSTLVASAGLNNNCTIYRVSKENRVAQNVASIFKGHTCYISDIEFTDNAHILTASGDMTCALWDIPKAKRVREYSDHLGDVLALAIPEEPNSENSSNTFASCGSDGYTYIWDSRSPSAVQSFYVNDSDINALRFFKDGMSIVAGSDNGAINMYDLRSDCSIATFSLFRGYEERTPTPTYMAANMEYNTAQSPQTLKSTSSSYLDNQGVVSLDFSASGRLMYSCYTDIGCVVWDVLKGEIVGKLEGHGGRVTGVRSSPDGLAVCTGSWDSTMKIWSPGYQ
Sequence of yeast Gβγ (Saccharomyces cerevisiae) (P18852 1-107, chain 2 of 2, further chain): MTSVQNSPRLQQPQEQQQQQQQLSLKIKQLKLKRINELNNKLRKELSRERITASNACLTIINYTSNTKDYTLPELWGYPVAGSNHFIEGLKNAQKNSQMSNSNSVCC
Sequence of rat CCKB receptor (rat) (P30553 whole entry): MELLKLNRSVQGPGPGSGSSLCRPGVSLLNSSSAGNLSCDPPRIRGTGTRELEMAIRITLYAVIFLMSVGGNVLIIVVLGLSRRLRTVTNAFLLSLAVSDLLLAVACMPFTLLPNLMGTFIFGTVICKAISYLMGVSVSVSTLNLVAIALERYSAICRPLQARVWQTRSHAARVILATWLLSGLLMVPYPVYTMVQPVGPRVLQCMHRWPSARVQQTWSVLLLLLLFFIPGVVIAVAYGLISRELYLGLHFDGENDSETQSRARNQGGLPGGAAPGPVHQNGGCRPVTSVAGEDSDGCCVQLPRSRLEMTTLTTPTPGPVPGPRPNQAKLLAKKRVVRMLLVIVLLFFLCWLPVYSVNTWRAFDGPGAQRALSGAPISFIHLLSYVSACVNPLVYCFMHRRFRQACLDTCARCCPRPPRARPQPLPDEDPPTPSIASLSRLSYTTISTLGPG

## rat Gαi2 (from UniProt P04897 2-355)
[1]
  reduction of pheromone-induced FUS1-lacZ signaling, CEN plasmid: 16%

## CCK-4 (from UniProt P06307 100-103) (peptide)
[2]
  growth response, agar plate bioassay, strains LY628 and LY631: 10 µg

## hGRF (1-29)-NH2 (from UniProt P01286 32-60) (peptide)
[3]
  growth response, agar plate bioassay, strain CY990: 20 nmol

B1: [^125I-tyr^11]-somatostatin 14 (peptide)
chain: AGCKNFFWKTY(125I)TSC
modifications: disulfide 3-14 (inferred); ends not checked
[4]
  Kd: 600 pM

Reference: US7148053 (BASF AKTIENGESELLSCHAFT, dated 2006)
